Laboratory results as given in paper PMC12023411, “Quaternary stabilization of a GH2 β‐galactosidase from the psychrophile A. ikkensis, a flexible and unstable dimeric enzyme” (Protein Science : A Publication of the Protein Society, 2025).
Values joined by “and” are separate entries in the source; they are usually repeats but may differ in a detail not shown here. Equal values may be shown once. Blank lines part the entries; values can stand above or below the compound they belong to.

Assays:
[1] = molecular target: T1, EcLac (Escherichia coli, UniProt P00722); assay: ONPG hydrolysis, absorbance […] nm; assay type: biochemical; settings: PBS pH 7.0, 0.1 mM MgCl2, 5 mM ONPG, 8 nM enzyme; temperature series
T1 construct: gene lacZ; commercial enzyme purchased from Sigma, lyophilized; homotetramer

[2] = molecular target: AiLac triple mutant (V648E, F702L, T742V) (Alkalilactibacillus ikkensis); assay: mass photometry; TwoMP mass photometer, 21°C; 0.25 μL of a 1 mg/mL (8.4 μM) stock added to 19.75 μL buffer, about 100 nM final
[3] = molecular target: AiLac triple mutant (V648E, F702L, T742V) (Alkalilactibacillus ikkensis); assay: flow-induced dispersion analysis (FIDA); 125 nM (WT) or 60 nM (TM) Alexa Fluor 488-labelled protein as indicator, pre-mixed with unlabelled protein of the same kind, 4 h at 4°C, buffer A; Rh fitted to a monomer-dimer model; constant of dimer to monomers
[4] = molecular target: GH2 β-galactosidase from Alkalilactibacillus ikkensis (AiLac), wild type (Alkalilactibacillus ikkensis); assay: SAXS; 0.40 mg/mL AiLac in 50 mM bis-tris propane, pH 7.0-8.0, 20°C; mass from I(0)
[5] = molecular target: GH2 β-galactosidase from Alkalilactibacillus ikkensis (AiLac), wild type (Alkalilactibacillus ikkensis); assay: SAXS; second peak of the SEC purification, 1.15 mg/mL, buffer A, 20°C, 1800 s; mass from I(0)
[6] = molecular target: GH2 β-galactosidase from Alkalilactibacillus ikkensis (AiLac), wild type (Alkalilactibacillus ikkensis); assay: SEC-MALS; Superdex 200 10/300 GL Increase, buffer A (PBS + 0.1 mM MgCl2, pH 7.0), room temperature, 0.5 mL/min, 50 μL of 1.5 mg/mL Ni-NTA purified protein loaded
[7] = molecular target: GH2 β-galactosidase from Alkalilactibacillus ikkensis (AiLac), wild type (Alkalilactibacillus ikkensis); assay: DSF (melting temperature against protein concentration); apparent; SEC-purified AiLac at 3.9 μg/mL to 4 mg/mL, 0.5°C/min, buffer A; tm fitted to the monomer-dimer equation (5); dimer to monomers
[8] = molecular target: GH2 β-galactosidase from Alkalilactibacillus ikkensis (AiLac), wild type (Alkalilactibacillus ikkensis); assay: flow-induced dispersion analysis (FIDA); 125 nM (WT) or 60 nM (TM) Alexa Fluor 488-labelled protein as indicator, pre-mixed with unlabelled protein of the same kind, 4 h at 4°C, buffer A; Rh fitted to a monomer-dimer model; constant of dimer to monomers
[9] = molecular target: GH2 β-galactosidase from Alkalilactibacillus ikkensis (AiLac), wild type (Alkalilactibacillus ikkensis); assay: as above; remark: listed apart in the source

T1 sequence (P00722 whole entry): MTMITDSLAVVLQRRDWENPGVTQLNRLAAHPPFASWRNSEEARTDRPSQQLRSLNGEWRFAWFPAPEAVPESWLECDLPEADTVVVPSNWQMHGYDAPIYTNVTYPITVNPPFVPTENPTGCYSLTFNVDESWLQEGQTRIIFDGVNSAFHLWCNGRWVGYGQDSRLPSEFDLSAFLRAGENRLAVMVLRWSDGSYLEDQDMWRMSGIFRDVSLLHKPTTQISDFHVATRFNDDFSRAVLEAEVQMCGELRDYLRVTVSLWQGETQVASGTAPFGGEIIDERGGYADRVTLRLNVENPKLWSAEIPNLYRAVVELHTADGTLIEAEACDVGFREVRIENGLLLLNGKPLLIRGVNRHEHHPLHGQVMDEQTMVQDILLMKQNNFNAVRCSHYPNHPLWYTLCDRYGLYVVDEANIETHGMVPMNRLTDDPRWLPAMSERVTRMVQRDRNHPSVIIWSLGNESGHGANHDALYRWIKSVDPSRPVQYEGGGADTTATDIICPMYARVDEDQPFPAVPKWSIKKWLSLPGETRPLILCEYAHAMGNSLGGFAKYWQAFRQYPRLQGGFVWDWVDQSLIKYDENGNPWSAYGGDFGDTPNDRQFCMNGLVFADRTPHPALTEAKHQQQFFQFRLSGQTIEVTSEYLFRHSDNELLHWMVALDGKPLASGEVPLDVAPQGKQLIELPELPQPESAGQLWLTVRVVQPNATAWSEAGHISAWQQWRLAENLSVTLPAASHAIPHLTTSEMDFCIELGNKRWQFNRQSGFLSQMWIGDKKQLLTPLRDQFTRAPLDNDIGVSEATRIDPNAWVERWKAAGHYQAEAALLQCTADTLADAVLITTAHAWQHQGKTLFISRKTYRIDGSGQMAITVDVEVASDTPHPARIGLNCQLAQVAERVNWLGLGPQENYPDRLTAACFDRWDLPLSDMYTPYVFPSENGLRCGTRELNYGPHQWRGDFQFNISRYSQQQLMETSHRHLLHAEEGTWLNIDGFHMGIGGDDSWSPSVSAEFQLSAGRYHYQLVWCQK

Compound: O=[N+]([O-])c1ccccc1O[C@@H]1O[C@H](CO)[C@H](O)[C@H](O)[C@H]1O [ONPG]
specific activity [1]: Activity of the AiLac and EcLac (purchased from Sigma) was assessed by hydrolysis of ONPG

stoichiometry N [2]: 4
stoichiometry N [3]: 2 and 4
Compound: AiLac triple mutant (V648E, F702L, T742V) (enzyme)

stoichiometry N [4]: 2
stoichiometry N [5]: 1.7 monomers
stoichiometry N [6]: 4 and 2
Kd [7]: 0.15 µM
Kd [8]: 0.23 µM
stoichiometry N [8]: 2
Kd [9]: 0.3 µM
Compound: GH2 β-galactosidase from Alkalilactibacillus ikkensis (AiLac), wild type (enzyme)
